Laboratory results as given in US8283126B2, “Voltage sensor domains of voltage-dependent ion channel proteins and uses thereof” (The Rockefeller University, priority 2003, dated 2012).

Assays:
[1] = target: T1, isolated voltage sensor domain (S1-S4) of KvAP (Aeropyrum pernix, UniProt Q9YDF8); assay: Binding of toxins to isolated voltage sensor domain immobilized on Co2+ affinity column, reverse phase HPLC of eluate; conditions: voltage sensor domain on Co2+ resin column versus control column without domain; elution with 400 mM imidazole
T1 construct: encoding Met1 to Lys147 was cloned into a pQE60 expression vector; made in house; host or cells: E. coli XL1-Blue
T1 sequence (Q9YDF8 with tags, fused parts or gaps): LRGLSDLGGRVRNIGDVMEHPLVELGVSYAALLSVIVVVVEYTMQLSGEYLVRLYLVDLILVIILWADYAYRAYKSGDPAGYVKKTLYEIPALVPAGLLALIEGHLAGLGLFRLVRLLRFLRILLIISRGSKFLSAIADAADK
Procedure: Isolated voltage sensor was expressed and purified according to Example 5. To generate the voltage sensor domain column for isolation of toxins, 0.1 ml of Co^2+ resin was washed with water and then equilibrated with Buffer A (20 mM Tris pH 8.0, 100 mM KCl, and 10 mM DM) in an eppendorf tube by 3-4 rounds of centrifugation (500 rpm) to collect resin, careful removal of the supernatant with a pipette and resuspension of the resin in either 1 ml of water or 0.4 ml of Buffer A.
Approximately 2 mg of voltage sensor domain was added to the equilibrated resin. The resin and voltage sensor domain protein were incubated for ˜15 minutes. The resin was then applied to a micro chromatography column (Biorad). Samples of the voltage sensor domain prior to addition to the resin and the flow through after addition of resin to the column was kept and later run on an SDS gel to ensure that an excess of protein has been added to the resin and saturated with protein. […]
Remaining protein was eluted from both columns with 0.1 ml of Buffer A containing 400 mM imidazole and reduced with 50 mM DTT at 37° C. for 2 hours to improve separation by reverse phase high performance liquid chromatography (HPLC). […] Peaks are collected and analyzed by MALDI-TOF mass spectrometry focusing on the low molecular weight range (˜800-10,000 Da).

KvAP channel = target: T2, KvAP channel (Aeropyrum pernix, UniProt Q9YDF8); assay: Electrophysiological assay of KvAP channels reconstituted into planar lipid bilayers; type: biochemical
T2 construct: made in house; host or cells: Escherichia coli
T2 sequence (Q9YDF8 14-295 limits assumed): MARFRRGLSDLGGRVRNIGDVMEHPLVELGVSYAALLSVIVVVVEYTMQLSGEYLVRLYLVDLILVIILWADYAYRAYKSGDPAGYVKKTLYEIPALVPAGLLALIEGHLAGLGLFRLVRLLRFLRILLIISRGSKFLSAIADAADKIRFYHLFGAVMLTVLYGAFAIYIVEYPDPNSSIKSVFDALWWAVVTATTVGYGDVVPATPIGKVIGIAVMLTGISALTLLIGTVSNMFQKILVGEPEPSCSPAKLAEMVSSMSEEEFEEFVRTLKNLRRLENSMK
From the text: KvAP channels were expressed in Escherichia coli, extracted with decylmaltoside, purified and reconstituted into planar lipid bilayers of 1-palmitoyl-2-oleoyl-phosphotidylglycerol (POPG) and 1-palmitoyl-2-oleoyl-phosphotidylethanolamine (POPE) for functional studies.
To examine the structural similarity of KvAP to eukaryotic K^+ channel pores, the ability of a small protein toxin from scorpion venom to inhibit the KvAP channel was examined.
To determine the orientation of channels incorporated into planar lipid bilayers, we used CTX, which causes inhibition by binding only to the extracellular side. KvAP channels open in response to membrane depolarization (e.g., when the voltage of the CTX-insensitive (intracellular) side of the membrane is made positive relative to the CTX-sensitive (extracellular) side. KvAP channels are strongly voltage-dependent, opening as a function of membrane voltage, similar to Shaker and other eukaryotic neuronal Kv channels.
The isolate voltage sensor immobilized to a resin in the column efficiently purifies toxins from tarantula venom (FIG. 3A).

Substance	binding to the isolated voltage sensor domain [1]	inhibition of KvAP channel currents (KvAP channel; currents elicited by a +100 mV depolarization)	Kd (KvAP channel; KvAP channel in planar lipid bilayers, read-out: dissociation constant (Kd) for inhibition of the KvAP channel) [µM]
VSTX1 (ECGKFMWKCKNSNDCCKDLVCSSRWKWCVLASPF)	binds to the domain	inhibits KvAP channel currents	
charybdotoxin [CTX, reference compound]			~400
